# Target: T1, Monomeric human ASC-His (recombinant full-length ASC) (human, UniProt Q9ULZ3 1-195)
# T1 construct: ASC (apoptosis-associated speck-like protein containing a CARD), human, recombinant full-length, monomeric; The methods list ASC-His and ASC-GFP-His; also called apoptosis-associated speck-like protein containing a caspase recruitment domain; monomeric recombinant human ASC; source: E. coli BL21(DE3), purified from inclusion bodies (Nickel beads, size exclusion chromatography)
# Assay: limited proteolysis-coupled mass spectrometry (LiP-MS); purified monomeric recombinant ASC incubated with monomeric recombinant human SAA1, 15 min at 37 °C in LiP buffer (100 mM HEPES pH 7.4, 150 mM KCl, 1 mM MgCl2); proteinase K 1:100 (w/w) 5 min at 37 °C; ASC peptides compared with and without SAA1
# Conditions: both partners purified
# T1 sequence (Q9ULZ3 whole entry, the tested form may be a part): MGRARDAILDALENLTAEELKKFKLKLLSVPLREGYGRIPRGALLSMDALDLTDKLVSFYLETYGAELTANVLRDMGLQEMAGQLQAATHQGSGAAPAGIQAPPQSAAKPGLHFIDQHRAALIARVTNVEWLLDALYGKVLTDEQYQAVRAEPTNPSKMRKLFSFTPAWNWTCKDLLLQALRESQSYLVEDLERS
binder,measurement,value
"recombinant human SAA1 (natural protein, UniProt P0DJI8 19-122, looked up, Serum amyloid A-1 (SAA1), human, recombinant; The assay format tells the two apart; How the fibrils were made is not described; also called serum amyloid A; monomeric recombinant human SAA1) RSFFSFLGEAFDGARDMWRAYSDMREANYIGSDKYFHARGNYDAAKRGPGGAWAAEVITDARENIQRFFGHGAEDSLADQAANEWGRSGKDPNHFRPAGLPEKY",binding result,binds
